{
  "source": "the nanobody polyreactivity screen of Harvey et al. (2022)",
  "data": [
    {"experiment": "yeast display, Sf9 membrane polyspecificity reagent, FACS + sequencing; frameworks hold sequencing errors", "summary_of_the_method": "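Nanobodies came from a synthetic yeast display library in Saccharomyces cerevisiae BJ5465, induced with galactose for 36–48 hours and stained for 1 hour at 4 °C with 10% biotinylated, detergent-solubilized Sf9 membrane reagent. Cells were enriched on streptavidin microbeads and then FACS-sorted, with low and high (top ~1%) gates set on anti-HA fluorescence for expression and streptavidin fluorescence for reagent binding. Each polyreactivity label reflects the gate a clone came from. Genes were amplified by colony PCR, sequenced by MiSeq 2 × 250 and filtered by CDR length.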", "values": [
      {"sequence": "QVQLVESGGGLVQAGGSLRLSCAASGFTFGGNARGWYRQAPGKERELVAAIRRGGSTNYADSVKGRFTISRDNAKNTVYLQMNSLKPEDTAVYYCARDYRSYTGSYDTSYDYWGQGTQVTVSS", "polyreactivity (PSR sort gate)": "high polyreactivity"},
      {"sequence": "QVQLVESGGGLVQAGGSLRLSCAASGFTFGGYAMGWYRQAPGKERDLVAAITGSGGNTIYADSVKGRFTISRDNAKNTFYLQINSLKPDDTAVYYCNARYTSHTHADCVYLFDYWGQGTQVNVSS", "polyreactivity (PSR sort gate)": "low polyreactivity"},
      {"sequence": "QVQLVESGGGLVQAGGSLRLSCAASGFTFGHYAMGWYRQAPGIERELVAAISRSGGTTSYADSVKGRFTISRDNAKNTVYLQMNSLKPEDTAVYYCNKDYIWARYGGGRDYWGQGTQVTVSS", "polyreactivity (PSR sort gate)": "low polyreactivity"},
      {"sequence": "QVQLVESGGGLVQAGGSLRLSCAASGFTFGHYAMGWYRQAPGKERELVAAISIDGGRTYYADSVKGRFTISRDNAKNTVYLQMNSLKPEDTAVYYCAVPRWVYYTSDYDYWGQGTQVTVSS", "polyreactivity (PSR sort gate)": "high polyreactivity"},
      {"sequence": "QVQLVESGGGLVQAGGSLRLSCAASGFTFGINAMGWYRQAPGQERELVASISSGSSTTYADSVKGRFTISRDNAKNTVYLQMNSLKPEDTAVYYCNARPFHIYWRYDYWGQGTQLTVSS", "polyreactivity (PSR sort gate)": "low polyreactivity"},
      {"sequence": "QVQLVESGGGLVQAGGSLRLSCAASGFTFGIYAMGWYRQAPGKERELVAAITSGGITKYADSVKGRFTISRDNAKNTVYLQMNSLKPEDTAVYYCAATGYRQSYDSTWYRYDYWGQGTQVTVSS", "polyreactivity (PSR sort gate)": "low polyreactivity"},
      {"sequence": "QVQLVESGGGLVQAGGSLRLSCAASGFTFGLYVMGWYRQAPGKERELVAVISRSGGGTYYADSVKGRFTISRDNAKNTVYLQMNSLKPEDSAVYYCAKPFSYITGWYNYWGQGTQVTVSS", "polyreactivity (PSR sort gate)": "high polyreactivity"},
      {"sequence": "QVQLVESGGGLVQAGGSLRLSCAASGFTFGPYAMGWSRQAPGKEREFVAAITSSGGSTYYADSVKGRFTISRDNAKNTVYLQMNSLKPEDTAVYYCNARSRGYVGKTPRRYYYWGQGTQVTVSS", "polyreactivity (PSR sort gate)": "high polyreactivity"},
      {"sequence": "QVQLVESGGGLVQAGGSLRLSCAASGFTFGPYDLGWYRQAPGKERELVAAITDSSGSTHYADSVKGRFTISRDNAKNTVYLQMNSLKPEDTAVYYCAADDSSRTTYDYWGQGTQVTVSS", "polyreactivity (PSR sort gate)": "low polyreactivity"},
      {"sequence": "QVQLVESGGGLVQAGGSLRLSCAASGFTFGPYDMGWYRQAPGTERELVAAITDSSGSTHYADSVKGRFTLSRDNAKNTFYLQMNSLKPEDTAVYYCAADVSSRTTYDYWGQGTQVTVSS", "polyreactivity (PSR sort gate)": "low polyreactivity"},
      {"sequence": "QVQLVESGGGLVQAGGSLRLSCAASGFTFGRNAMGWYRQAPAKERELVAAISYDGTRTYYADSVKGRFTISRDKAKNTVYLQMNSLKPEDTAVYYGNAVWVRGFYRVYDYWGQGTQVTVSS", "polyreactivity (PSR sort gate)": "high polyreactivity"},
      {"sequence": "QVQLVESGGGLVQAGGSLRLSCAASGFTFGRNAMGWYRQAPGKERELVAAISSSGGTTYYADSVKGRFTISRDNAKNTVYLQMNSLKPEDTAVYSCAARRWYQSRRGGFDYWGQGTQVTVSS", "polyreactivity (PSR sort gate)": "high polyreactivity"},
      {"sequence": "QVQLVESGGGLVQAGGSLRLSCAASGFTFGRYAMGGYRQAPGKERELVAAITSRGGSTYYADSVKGRFTISRDNAKNTVYLQMNSLKPEDTAVYYCAAATNTGPRGYEYWGQGTQVTVSS", "polyreactivity (PSR sort gate)": "high polyreactivity"},
      {"sequence": "QVQLVESGGGLVQAGGSLRLSCAASGFTFGRYAMGWYRQAPGKERELVAAISRGGSSTYYADSVKGRFTISRDNAKNTVYLQMNSLKPEDNAVYYCNKVIIWARFDYWGQGTQVTVSS", "polyreactivity (PSR sort gate)": "high polyreactivity"},
      {"sequence": "QVQLVESGGGLVQAGGSLRLSCAASGFTFGRYAMGWYRQAPGKERELVAAISTSGGRTYYADSVKGRFTISRDNAKNTVYLQMNSLKPEDTAVYYCAAEQRRFTGYDYWGQGTQVTVSS", "polyreactivity (PSR sort gate)": "high polyreactivity"},
      {"sequence": "QVQLVESGGGLVQAGGSLRLSCAASGFTFGRYAMGWYRQAPGKERELVAAISWSGTRTYYADSVKGRFTISRDNAKNTVYLQLNSLKPEDTADYYCAAYPPPWAQTGFYTYDYWGQGTQVTVSS", "polyreactivity (PSR sort gate)": "high polyreactivity"},
      {"sequence": "QVQLVESGGGLVQAGGSLRLSCAASGFTFGRYAMGWYRQAPGKERELVAAITWSGGSTYYADSVKGRFTISRDNAKNTVYLQMNSLKPEDTAVYYCNRLSNNREYDYWGQGTQVTVSS", "polyreactivity (PSR sort gate)": "high polyreactivity"},
      {"sequence": "QVQLVESGGGLVQAGGSLRLSCAASGFTFGRYAMGWYRQAPGKVRELVAAINWSGGSTYYADSVKGRFTISRDNAKNTVYLQMNSLKPEDPAVYYCNKGVSRSSVRGDYWGQGTQVTVSS", "polyreactivity (PSR sort gate)": "high polyreactivity"},
      {"sequence": "QVQLVESGGGLVQAGGSLRLSCAASGFTFGSNAMGWYRQAPGKEREFVAAISRSGSRTYYADSVKGRFTISRDNAKNTVYLQMNSLKPEDTAVYYCNARSGEISQRHMDYWGQGTQVTVSS", "polyreactivity (PSR sort gate)": "high polyreactivity"},
      {"sequence": "QVQLVESGGGLVQAGGSLRLSCAASGFTFGSNAMGWYRQAPGKERELVAAISSRGGRTYYADSVKGRFTISRDNAKNTVYLQMNSLKPEDTAVYYCAKYRSYRGPYNYWGQGTQVTVSS", "polyreactivity (PSR sort gate)": "high polyreactivity"},
      {"sequence": "QVQLVESGGGLVQAGGSLRLSCAASGFTFGSNAMGWYRQAPGKERELVATISRRGGRTYYADSVKGRFTISRDNAKNTVYLQMNSLKPEDTAVYYCAADRSRPGYDYWGQGTQVTVSS", "polyreactivity (PSR sort gate)": "high polyreactivity"},
      {"sequence": "QVQLVESGGGLVQAGGSLRLSCAASGFTFGSNTMGWYRQAPRKERELVAAITGRGGSTYYADSVKGRFTSSRDNAKNTVYLQMTSLKPEDTAVYYCAARTYPTGASFDYWGQGTQVTVSS", "polyreactivity (PSR sort gate)": "high polyreactivity"},
      {"sequence": "QVQLVESGGGLVQAGGSLRLSCAASGFTFGSNVMGWYRQAPGKERELVAAIRGRGGSTYYADSVKGRFTISRDNAKNTVYLQMNSLKPEDTAVYYCNAVYSYYYRWYYDFDYWGQGTQVTVSS", "polyreactivity (PSR sort gate)": "high polyreactivity"},
      {"sequence": "QVQLVESGGGLVQAGGSLRLSCAASGFTFGSYAMGWSRQAPGKERELVAVITRSGRTNYADSVKGRFTISRDNAKNTVYLQMNSLKPEDTAVYYCNADDVDDEVSPDLTEMDYWGQGTQVTVSS", "polyreactivity (PSR sort gate)": "low polyreactivity"},
      {"sequence": "QVQLVESGGGLVQAGGSLRLSCAASGFTFGSYAMGWYRQAPGKERELVAVITRSGRTNYADSVKGRFTISRDNAKNTVYLQMNSLKPEDTEVYYCNADDVDDEVSPDLTEMDYWGQGTQVTVSS", "polyreactivity (PSR sort gate)": "low polyreactivity"},
      {"sequence": "QVQLVESGGGLVQAGGSLRLSCAASGFTFGTYAMGWYRQAPGKERELVARITSGGRTNYADSVKGRFTISRDNAKNTVYLQMNSLKPEDTAVFYCNAVNGYYWGSRFDYWGQGTQVTVSS", "polyreactivity (PSR sort gate)": "high polyreactivity"},
      {"sequence": "QVQLVESGGGLVQAGGSLRLSCAASGFTFGTYDMGWYRQAPGKERELVAAIDWGGGSTYYADSVKGRFTISRDNAKNTFYLQMNSLKTEDTAFYYCAADGPGDYLTLEWYWFTYYYWGQGTQVTVTS", "polyreactivity (PSR sort gate)": "high polyreactivity"},
      {"sequence": "QVQLVESGGGLVQAGGSLRLSCAASGFTFGTYDMGWYRQAPGKERELVAAISTSGGSTYYADSVKGRFTISRDNAKNTVYLQMNSLKPEDTAVYYCAARIVYYGGYGYWGQGTQVTVSS", "polyreactivity (PSR sort gate)": "high polyreactivity"},
      {"sequence": "QVQLVESGGGLVQAGGSLRLSCAASGFTFGVNAMGWYRQAPGKERELVAVITSGGNTYYADSVKGRFTISRDNAKNTVYLQMNSLKPEDTAVYYCAADLSDTSYATRYQGDYWGQGTQVTVSS", "polyreactivity (PSR sort gate)": "low polyreactivity"},
      {"sequence": "QVQLVESGGGLVQAGGSLRLSCAASGFTFGVYAMGWYRQAPGKERELVAAISVSGGRTYYADSVKGRFTISRDNAKNTVYLQMNSLKPEDTAVYYCAADLGLKTSSRRTSMYYWGQGTQVTVSS", "polyreactivity (PSR sort gate)": "high polyreactivity"},
      {"sequence": "QVQLVESGGGLVQAGGSLRLSCAASGFTFGVYAMGWYRQAPGKERELVAAITRSGSSTYYADSVKGRFTISRDNAKNTVYLQMNSLKPEDTAVYYCNKYKYVSAVQWKVAGDYWGQGTQVTVSS", "polyreactivity (PSR sort gate)": "low polyreactivity"},
      {"sequence": "QVQLVESGGGLVQAGGSLRLSCAASGFTFGWYAMGWYRPAPGKERELVAAISSTGGRTYYADSVKGRFTISRDNAKNTVYLQMNSLKPEDTAVYYCAAAYSYGTEYGYWGQGTQVTVSS", "polyreactivity (PSR sort gate)": "high polyreactivity"},
      {"sequence": "QVQLVESGGGLVQAGGSLRLSCAASGFTFGYNAMGWYRHAPGKERELVAAISYRDGSTYYADSVKGRFTISRDNAKNTVYLQMNSLKPEDTAVYYCAAEVWYPGWGYDYWGQGTQVTVSS", "polyreactivity (PSR sort gate)": "high polyreactivity"},
      {"sequence": "QVQLVESGGGLVQAGGSLRLSCAASGFTFGYNAMGWYRQAPGKEREFVAAISISTGRTFYADSVKGRFTISRDNAKNTVYLQMNSLKPEDTAFYYCAARGYYPTNVGKYNYWGQGTQVTVSS", "polyreactivity (PSR sort gate)": "high polyreactivity"},
      {"sequence": "QVQLVESGGGLVQAGGSLRLSCAASGFTFGYNAMGWYRQAPGKEREMVAAINYGGSTDYADSVKGRFTISRDYAKNTVYLQMNSLKPEDTAVYYCNIADRYAYWVRGRHRYGYWGQGTQVTVSS", "polyreactivity (PSR sort gate)": "low polyreactivity"},
      {"sequence": "QVQLVESGGGLVQAGGSLRLSCAASGFTFGYNAMGWYRQTPGKERELVAVITQSGGRTYYADSVKGRFTISRDNAKNTVYLQMNSLKPEDTAVYYCAARYRLPPYYYWGQGTQVTVSS", "polyreactivity (PSR sort gate)": "high polyreactivity"},
      {"sequence": "QVQLVESGGGLVQAGGSLRLSCAASGFTFGYYAMGRYRQAPGKERELVATITSSGASTYADSVKGRFTISRDNAKNTVYLLMNSLKPEDTAVYYCAADRLPSYWSWYGYDYWGQGTQVTVSS", "polyreactivity (PSR sort gate)": "high polyreactivity"},
      {"sequence": "QVQLVESGGGLVQAGGSLRLSCAASGFTFGYYAMGWYRQAPGKERELVAAINWSGDSTYYADSVKGRFTISRDNAKNTVYLQMNSLKPEDTAVYYCNAVIEDLPYDYWGQGTQVTVSS", "polyreactivity (PSR sort gate)": "low polyreactivity"},
      {"sequence": "QVQLVESGGGLVQAGGSLRLSCAASGFTFGYYAMGWYRQAPGKERELVAAITWNGGSTYYADSVKGRFTISRDYAKNTVYLQMNSLKPEDTAVYYCAAVYKYIQRYDYWGQGTQVTVSS", "polyreactivity (PSR sort gate)": "high polyreactivity"},
      {"sequence": "QVQLVESGGGLVQAGGSLRLSCAASGFTFGYYAMGWYRQAPGKERELVARISRRGGTTYYADSVKGRFTISRDNAKTTVYLQMNSLKPEDTAVYYCATDGVWNRINRYDYWGQGTQVTVSS", "polyreactivity (PSR sort gate)": "high polyreactivity"},
      {"sequence": "QVQLVESGGGLVQAGGSLRLSCAASGFTFGYYAMGWYRQAPGKERELVDAISSSGGSTYYSDSVKGSFTISRDNAKNTVYLQMNSLKPEDTAVYYCNRGTTVRGPGYTNGRDITRYDYWGQGTQVTVSS", "polyreactivity (PSR sort gate)": "high polyreactivity"},
      {"sequence": "QVQLVESGGGLVQAGGSLRLSCAASGFTFGYYTMGWYRPEAGKEWELVAAISNSGGRTYYADSVKGRFTISLDYAKNTVYFQMNSLKPEDTAVYYCAKAYRTPGYDSWGQGTQVTVSS", "polyreactivity (PSR sort gate)": "high polyreactivity"},
      {"sequence": "QVQLVESGGGLVQAGGSLRLSCAASGFTFGYYTMGWYRQAPGKERELVAAISWSGDSTYYADSVKGRFTISRDNAKNNVYLQMNSLKPEDTAVYYCAAAVYGSWPDYDYWGQGTQVTVSS", "polyreactivity (PSR sort gate)": "low polyreactivity"}
    ]}
  ]
}
